How the values were obtained:
[1] = molecular target: T1, TIGIT fusion protein with Fc or mFc tag (human, UniProt Q495A1 22-141); assay: ELISA: human TIGIT-Fc or TIGIT-mFc captured by coated anti-Fc antibody, HRP secondary antibody, OD450
T1 construct: extracellular domain; also called TIGIT-Fc; TIGIT-mFc
T1 sequence (looked up): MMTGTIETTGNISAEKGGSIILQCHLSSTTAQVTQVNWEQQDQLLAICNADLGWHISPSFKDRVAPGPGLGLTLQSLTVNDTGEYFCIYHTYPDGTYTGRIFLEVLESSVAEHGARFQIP

[2] = molecular target: T2, Full-length human TIGIT on CHO cells overexpressing TIGIT (human, UniProt Q495A1 22-244); assay: FACS blocking assay on TIGIT-CHO cells; competitor CF633-labeled CD155-Fc at 2 ug/ml
T2 construct: also called TIGIT-CHO cells; CHO cells overexpressing human TIGIT
T2 sequence: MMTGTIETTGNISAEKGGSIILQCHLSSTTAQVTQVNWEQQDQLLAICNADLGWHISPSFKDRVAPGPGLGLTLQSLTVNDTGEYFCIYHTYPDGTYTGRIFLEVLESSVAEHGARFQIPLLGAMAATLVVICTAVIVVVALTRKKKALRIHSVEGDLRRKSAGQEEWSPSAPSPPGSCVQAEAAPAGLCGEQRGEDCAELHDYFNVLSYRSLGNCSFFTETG

[3] = molecular target: T2, Full-length human TIGIT on CHO cells …; assay: cell ELISA on fixed CHO cells overexpressing human TIGIT
[4] = molecular target: T1, TIGIT fusion protein with Fc or mFc tag; assay: FACS blocking assay: TIGIT-mFc pre-incubated with the antibody, added to CHO cells overexpressing CD112 (blocked ligand), PE anti-mouse IgG, MFI
[5] = molecular target: T1, TIGIT fusion protein with Fc or mFc tag; assay: blocking cell ELISA: TIGIT-hFc or TIGIT-mFc (0.2 ug/ml) pre-mixed with the antibody, added to fixed CHO cells overexpressing CD155 (blocked ligand), OD450
[6] = molecular target: T3, human TIGIT (Sinobiological Co., Ltd., Cat. 10917-H08-H) (human, UniProt Q495A1 22-141); assay: SPR (Biacore T200), antibody captured via Protein A, huTIGIT in mobile phase, 1:1 Langmuir fit
T3 construct: also called huTIGIT; TIGIT-His
T3 sequence (looked up): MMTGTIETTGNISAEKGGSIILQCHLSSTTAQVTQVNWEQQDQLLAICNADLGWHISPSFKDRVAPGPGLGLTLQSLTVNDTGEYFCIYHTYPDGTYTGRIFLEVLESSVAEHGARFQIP

[7] = molecular target: T4, cynoTIGIT-mFc (fusion protein of cynoTIGIT extracellular domain and mouse IgG2a Fc fragment) (cynomolgus); assay: SPR (Biacore T200), antibody held by Fc affinity capture, cynoTIGIT-mFc in mobile phase, 1:1 Langmuir fit
T4 construct: also called monkey TIGIT; cynomolgus TIGIT-mFc fusion protein
T4 sequence (chain, as listed by the source limits assumed): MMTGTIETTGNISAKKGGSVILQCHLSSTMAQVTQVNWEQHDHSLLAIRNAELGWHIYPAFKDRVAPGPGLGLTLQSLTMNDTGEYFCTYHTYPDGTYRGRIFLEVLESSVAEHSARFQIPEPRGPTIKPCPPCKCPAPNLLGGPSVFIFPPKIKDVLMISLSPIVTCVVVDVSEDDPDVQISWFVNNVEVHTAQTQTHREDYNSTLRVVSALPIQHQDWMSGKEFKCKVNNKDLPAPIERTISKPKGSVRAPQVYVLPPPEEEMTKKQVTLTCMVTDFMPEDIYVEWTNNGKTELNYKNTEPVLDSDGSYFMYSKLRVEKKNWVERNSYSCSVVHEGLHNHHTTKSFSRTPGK

[8] = molecular target: T3, human TIGIT (Sinobiological Co., Ltd., …); assay: SPR (Biacore), captured antibody, TIGIT-His as analyte
[9] = molecular target: T1, TIGIT fusion protein with Fc or mFc tag; assay: HTRF blocking assay: TIGIT-Fc or TIGIT-mFc with biotinylated CD155 as the blocked ligand, ratio 665/620
[10] = molecular target: T5, human TIGIT on SEB-activated human PBMC (human, UniProt Q495A1); assay: flow cytometry on SEB-activated human PBMC, PE anti-human IgG, MFI
T5 construct: native, on the cell surface
T5 sequence (receptor chain, looked up): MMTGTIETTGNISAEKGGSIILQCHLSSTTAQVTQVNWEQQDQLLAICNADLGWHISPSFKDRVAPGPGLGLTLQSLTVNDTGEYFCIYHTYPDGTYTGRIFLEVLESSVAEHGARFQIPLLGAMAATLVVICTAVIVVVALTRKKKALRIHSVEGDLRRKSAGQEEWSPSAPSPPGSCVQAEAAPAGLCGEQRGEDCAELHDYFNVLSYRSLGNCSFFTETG

[11] = molecular target: T1, TIGIT fusion protein with Fc or mFc tag; assay: HTRF blocking assay: TIGIT-Fc or TIGIT-mFc with biotinylated CD155 as the blocked ligand, ratio 665/620; remark: listed apart in the source
[12] = molecular target: T4, cynoTIGIT-mFc (fusion protein of …); assay: ELISA: cynomolgus TIGIT-Fc or TIGIT-mFc captured by coated anti-Fc antibody, HRP secondary antibody, OD450

B1: 10A7 hIgG4 (antibody, V domains shown)
VH: EVQLVESGGGLTQPGKSLKLSCEASGFTFSSFTMHWVRQSPGKGLEWVAFIRSGSGIVFYADAVRGRFTISRDNAKNLLFLQMNDLKSEDTAMYYCARRPLGHNTFDSWGQGTLVTVSS
VL: DIVMTQSPSSLAVSPGEKVTMTCKSSQSLYYSGVKENLLAWYQQKPGQSPKLLIYYASIRFTGVPDRFTGSGSGTDYTLTITSVQAEDMGQYFCQQGINNPLTFGDGTKLEIKR
For B1, the “EC50 (read off the curve)” value [1] was ~0.2 nM, the IC50 [2] was 0.678 nM and the EC50 [3] was 0.109 nM.

B2: 22G2-H3Q (antibody, human IgG4 S228P, kappa, V domains shown)
VH: QVQLQESGPGLVKPSETLSLTCTVSGGSVSSGIYYWSWIRQPPGKGLEWIGYIYYSGSTNYNPSLKSRVTISVDTSKNQFSLKLSSVTAADTAVYYCARDYYVSGNYYNVDYYFFGVDVWGQGTTVTVSS
VL: EIVLTQSPATLSLSPGERATLSCRASQSVSSYLAWYQQKPGQAPRLLIYDASNRATGIPARFSGSGSGTDFTLTISSLEPEDFAVYYCQQRSNWPPLFTFGPGTKVDIKR
For B2, the “IC50 (read off the curve)” value [4] was ~5 nM, the “IC50 (read off the curve)” value [5] was ~1 nM and the Kd [6] was 0.709 nM. It also gave a koff [6] of 0.000379 s⁻¹, a kon [6] of 535000 M⁻¹ s⁻¹ and a Kd [7] of 0.166 nM. It also gave a koff [7] of 0.000404 s⁻¹ and a kon [7] of 2.44e+06 M⁻¹ s⁻¹.

B3: ch1711 (antibody, V domains shown)
VH: QVQLQQSGTELVRPGTSVKMSCKASGYTFTNYWIGWAKQRPGHGLEWIGDIYPGGAYTNYNEKFKDKATLTADKSSSTAYMQFSSLTSEDSAIYYCTRGDYYDSSGRAMDYWGQGTSVTVSS
VL: DIVMSQSPSSLAVSVGEKVSMSCKSSQSLLYSRNQMNYLAWYQQKPGQSPKLLIYWTSTRESGVPDRFTGSGSGTDFTLTISSVKAEDLAVYYCQQYYSYPYTFGGGTKLEIK
notes: also called chimeric antibody corresponding to m1711
Binder B3 has a Kd [8] of 0.249 nM, a koff [8] of 0.000455 s⁻¹ and a kon [8] of 1.83e+06 M⁻¹ s⁻¹.

B4: h1711-01 (antibody, V domains shown)
VH: EVQLVQSGAEVKKPGSSVKVSCKASGGTFSNYWIGWVRQAPGQGLEWMGDIYPGGAYTNYNEKFKDRVTITADKSTSTAYMELSSLRSEDTAVYYCARGDYYDSSGRAMDYWGQGTLVTVSS
VL: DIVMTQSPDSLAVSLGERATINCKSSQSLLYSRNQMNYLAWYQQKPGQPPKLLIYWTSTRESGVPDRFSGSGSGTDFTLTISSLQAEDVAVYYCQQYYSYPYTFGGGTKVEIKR
B4 was tested, and the Kd [8] was 1.49 nM, the koff [8] was 0.00209 s⁻¹ and the kon [8] was 1.4e+06 M⁻¹ s⁻¹.

B5: h1711-02 (antibody, human IgG4 S228P, kappa, V domains shown)
VH: EVQLVQSGAEVKKPGSSVKVSCKASGGTFSNYWIGWVRQAPGQGLEWIGDIYPGGAYTNYNEKFKDRVTITADKSTSTAYMELSSLRSEDTAVYYCARGDYYDSSGRAMDYWGQGTLVTVSS
VL: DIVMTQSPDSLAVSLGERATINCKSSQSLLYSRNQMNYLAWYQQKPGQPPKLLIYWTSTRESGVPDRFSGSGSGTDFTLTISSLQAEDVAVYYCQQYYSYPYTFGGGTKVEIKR
With B5 the Kd [8] was 1.24 nM, the koff [8] was 0.00171 s⁻¹ and the kon [8] was 1.38e+06 M⁻¹ s⁻¹.

B6: h1711-03 (antibody, human IgG4 S228P, kappa, V domains shown)
VH: EVQLVQSGAEVKKPGSSVKVSCKASGYTFSNYWIGWVRQAPGQGLEWIGDIYPGGAYTNYNEKFKDRVTITADKSTSTAYMELSSLRSEDTAVYYCARGDYYDSSGRAMDYWGQGTLVTVSS
VL: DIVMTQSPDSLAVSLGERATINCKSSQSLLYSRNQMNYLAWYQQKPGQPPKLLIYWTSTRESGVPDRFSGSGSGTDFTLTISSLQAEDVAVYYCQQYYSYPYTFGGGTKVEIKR
In the case of B6, the Kd [8] is reported as 0.556 nM, the koff [8] is reported as 0.000723 s⁻¹ and the kon [8] is reported as 1.3e+06 M⁻¹ s⁻¹.

B7: h1708-05 (antibody, human IgG4 S228P, kappa, V domains shown)
VH: EVQLVQSGAEVKKPGASVKVSCKASGYTFTNYWMHWVRQAPGQGLEWMGRIDPDSTGSKYNEKFKTRVTMTVDTSTSTVYMELSSLRSEDTAVYYCAREGAYGYYFDYWGQGTLVTVSS
VL: DIQMTQSPSSLSASVGDRVTITCRASENIYSYLAWYQQKPGKSPKLLIYNARTLAEGVPSRFSGSGSGTDFTLTISSLQPEDFATYYCQYHSGSPLPFGGGTKVEIKR
notes: also called humanized TIGIT antibody h1708-05
With B7 the “IC50 (read off the curve)” value [9] was ~1 nM.

B8: h1708-04 (antibody, human IgG4 S228P, kappa, V domains shown)
VH: EVQLVQSGAEVKKPGASVKVSCKASGYTFTNYWMHWVRQAPGQGLEWMGRIDPDSTGSKYNEKFKTRVTMTRDTSTSTVYMELSSLRSEDTAVYYCAREGAYGYYFDYWGQGTLVTVSS
VL: DIQMTQSPSSLSASVGDRVTITCRASENIYSYLAWYQQKPGKSPKLLIYNARTLAEGVPSRFSGSGSGTDFTLTISSLQPEDFATYYCQYHSGSPLPFGGGTKVEIKR
notes: also called humanized TIGIT antibody h1708-04
For B8, the “EC50 (read off the curve)” value [1] was ~0.1 nM, the “IC50 (read off the curve)” value [4] was ~5 nM and the IC50 [2] was 0.499 nM. The “EC50 (read off the curve)” value [10] was ~0.3 nM, the “IC50 (read off the curve)” value [5] was ~1 nM and the “IC50 (read off the curve)” value [9] was ~1 nM. For the same binder, the Kd [6] was 0.104 nM, the koff [6] was 0.000183 s⁻¹ and the kon [6] was 1.75e+06 M⁻¹ s⁻¹. The “IC50 (read off the curve)” value [11] was ~2 nM, the EC50 [3] was 0.0848 nM and the Kd [7] was 0.285 nM. The koff [7] was 0.000352 s⁻¹ and the kon [7] was 1.24e+06 M⁻¹ s⁻¹.

B9: h1708-06 (antibody, human IgG4 S228P, kappa, V domains shown)
VH: EVQLVQSGAEVKKPGASVKVSCKASGYTFTNYWMHWVRQAPGQGLEWIGRIDPDSTGSKYNEKFKTRVTMTVDTSTSTAYMELSSLRSEDTAVYYCAREGAYGYYFDYWGQGTLVTVSS
VL: DIQMTQSPSSLSASVGDRVTITCRASENIYSYLAWYQQKPGKSPKLLIYNARTLAEGVPSRFSGSGSGTDFTLTISSLQPEDFATYYCQYHSGSPLPFGGGTKVEIKR
notes: also called humanized TIGIT antibody h1708-06
With B9 the “IC50 (read off the curve)” value [9] was ~1 nM.

B10: h1708-02 (antibody, human IgG4 S228P, kappa, V domains shown)
VH: EVQLVQSGAEVKKPGASVKVSCKASGYTFTNYWMHWVRQAPGQGLEWMGRIDPDSTGSKYNEKFKTRVTMTVDTSTSTVYMELSSLRSEDTAVYYCAREGAYGYYFDYWGQGTLVTVSS
VL: DIQMTQSPSSLSASVGDRVTITCRASENIYSYLAWYQQKPGKAPKLLIYNARTLAEGVPSRFSGSGSGTDFTLTISSLQPEDFATYYCQYHSGSPLPFGGGTKVEIKR
notes: also called humanized TIGIT antibody h1708-02
For B10, the “IC50 (read off the curve)” value [9] was ~1 nM.

B11: h1708-01 (antibody, human IgG4 S228P, kappa, V domains shown)
VH: EVQLVQSGAEVKKPGASVKVSCKASGYTFTNYWMHWVRQAPGQGLEWMGRIDPDSTGSKYNEKFKTRVTMTRDTSTSTVYMELSSLRSEDTAVYYCAREGAYGYYFDYWGQGTLVTVSS
VL: DIQMTQSPSSLSASVGDRVTITCRASENIYSYLAWYQQKPGKAPKLLIYNARTLAEGVPSRFSGSGSGTDFTLTISSLQPEDFATYYCQYHSGSPLPFGGGTKVEIKR
notes: also called humanized TIGIT antibody h1708-01
For B11, the “IC50 (read off the curve)” value [9] was ~1 nM.

B12: h1708-03 (antibody, human IgG4 S228P, kappa, V domains shown)
VH: EVQLVQSGAEVKKPGASVKVSCKASGYTFTNYWMHWVRQAPGQGLEWIGRIDPDSTGSKYNEKFKTRVTMTVDTSTSTAYMELSSLRSEDTAVYYCAREGAYGYYFDYWGQGTLVTVSS
VL: DIQMTQSPSSLSASVGDRVTITCRASENIYSYLAWYQQKPGKAPKLLIYNARTLAEGVPSRFSGSGSGTDFTLTISSLQPEDFATYYCQYHSGSPLPFGGGTKVEIKR
notes: also called humanized TIGIT antibody h1708-03
In the case of B12, the “IC50 (read off the curve)” value [9] is reported as ~1 nM.

B13: h1707-02 (antibody, human IgG4 S228P, kappa, V domains shown)
VH: EVQLVESGGGLVQPGGSLRLSCAASGFTFSDYHMYWVRQAPGKGLEWVAYISKGGISTYYPDTVKGRFTISRDNAKNSLYLQMSRLRAEDTAVYYCARQSSYDFAMDYWGRGTLVTVSS
VL: DIQMTQSPSFLSASVGDRVTITCKASQDVGTSVAWYQQKPGKAPKLLIYWASARHTGVPSRFSGSGSGTDFTLTISSLQPEDFATYYCQQYSSYPLTFGQGTKLEIKR
notes: also called humanized TIGIT antibody h1707-02
In the case of B13, the “EC50 (read off the curve)” value [1] is reported as ~0.1 nM, the “IC50 (read off the curve)” value [4] is reported as ~5 nM and the IC50 [2] is reported as 0.482 nM. The “EC50 (read off the curve)” value [10] was ~0.3 nM, the “IC50 (read off the curve)” value [5] was ~1 nM and the Kd [6] was 0.108 nM. For the same binder, the koff [6] was 0.000188 s⁻¹, the kon [6] was 1.74e+06 M⁻¹ s⁻¹ and the “IC50 (read off the curve)” value [11] was ~3 nM. The EC50 [3] was 0.0872 nM and the binding result [12] was “binds”.

Reference: patent publication US20200255516A1 (JIANGSU HENGRUI MEDICINE, published 2020)
